Measured values: patent publication US20020169291A1

Assays:
[1] = target: mature human IL-18 K89A mutant (human) (UniProt Q14116); assay: cell-based or functional assay
[2] = target: mature human IL-18 WT, generated by factor Xa cleavage of proIL-18 (ICE/Xa) (human) (UniProt Q14116); assay: cell-based or functional assay
Sequence of mature human IL-18 WT, generated by factor Xa cleavage of proIL-18 (ICE/Xa) (human) (Q14116 37-193 limits assumed): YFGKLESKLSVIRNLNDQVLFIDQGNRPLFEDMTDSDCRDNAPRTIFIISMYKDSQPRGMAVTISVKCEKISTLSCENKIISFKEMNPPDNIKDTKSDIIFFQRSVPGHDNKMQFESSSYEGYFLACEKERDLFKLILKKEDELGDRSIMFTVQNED

Sequence of mature human IL-18 K89A mutant (human) (Q14116 37-193 K89A): as the sequence (Q14116 37-193 limits assumed) above, with K53A counted along it

IL-18BP concentration giving a statistically significant reduction of IFN-γ co-induction in NKO cells [1]: 120 ng/mL
IL-18BP concentration that neutralized IFN-γ induction in PBMCs [1]: 120 ng/mL
50% inhibitory concentration of IL-18BP for co-induction of IFN-γ from NKO cells [2]: 15 ng/mL
amount of IL-18BP needed to neutralize IFN-γ induction in PBMCs [2]: 3.7 ng/mL
Substance: "a" isoform of CHO cell produced recombinant his-6-tagged human IL-18BP (from UniProt O95998 31-194)
